From patent US20240174755A1 (published 2024)
Each block holds one binder with its values, some of them ahead of it.

Tests used:
[1] = target: T1, mouse PDGFR β ECD (R&D Systems) (mouse, UniProt P05622 32-531); experiment: biotin-streptavidin ELISA, mouse PDGFR β ECD coated at 4 ug/ml
T1 construct: extracellular domain; Bought; also called mECD; mouse ECD
T1 sequence (looked up): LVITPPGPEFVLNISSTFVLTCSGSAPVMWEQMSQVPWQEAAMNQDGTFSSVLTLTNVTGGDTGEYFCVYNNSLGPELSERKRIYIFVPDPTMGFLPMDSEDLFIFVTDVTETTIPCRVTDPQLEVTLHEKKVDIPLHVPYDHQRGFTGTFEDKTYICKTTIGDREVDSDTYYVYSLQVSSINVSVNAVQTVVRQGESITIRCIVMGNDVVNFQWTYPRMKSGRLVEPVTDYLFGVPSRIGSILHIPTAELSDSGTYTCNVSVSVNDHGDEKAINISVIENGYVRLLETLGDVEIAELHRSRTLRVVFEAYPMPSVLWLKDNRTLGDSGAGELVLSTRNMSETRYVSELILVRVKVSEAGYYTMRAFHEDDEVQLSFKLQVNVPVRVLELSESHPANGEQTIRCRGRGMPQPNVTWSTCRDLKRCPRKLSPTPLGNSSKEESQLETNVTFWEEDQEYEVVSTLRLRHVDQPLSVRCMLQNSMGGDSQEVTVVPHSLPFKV
Method: (§1) In this example, the binding affinity of biotin-conjugated VHHs 1B5 and 1E12 to either human or mouse PDGFR β extra-cellular domain (ECD) was assessed using biotin-streptavidin ELISA. Human or mouse PDGFR β ECD was coated on immunoassay wells, where 1B5-biotin or 1E12-biotin were captured. Binding was detected using streptavidin-HRP and ODP as a substrate.
(§2) ELISA Method 96-well maxisorp (Nunc) immunosorp plates were coated with 1 ug/ml or 2 ug/ml of PDGFR β extracellular domain (ECD; Fc- and His-tagged, Sino Biological) or mouse PDGFR β ECD (R&D Systems) 4 ug/ml in PBS, 100 ul per well, at 4C overnight. Wells were washed thrice in PBS. Unspecific binding sites were blocked in 4% BSA/PBS for 1h at RT, followed by washing thrice in PBS. VHHs 1B5-biotin or 1E12-biotin, diluted at 0.01-100 nM in 1% BSA/PBS, was allowed to bind on ECD for 1 h at RT, followed by washing thrice in PBS. Streptavidin-horseradish peroxidase (HRP; GeneTex) was diluted 1:10,000 in 1% BSA/PBS and was incubated for 1 h at RT. […] Optical density was measured at 492 nm on a Synergy H1 microplate reader (BioTek).

[2] = target: T2, human EGFR/HER1/ErbB1 Protein (His Tag, Sino Biological; Cat. Number 10001-H08H) (human, UniProt P00533 25-645); experiment: direct ELISA, EGFR coated, streptavidin-HRP detection
T2 construct: Bought; construct not described; not shown: His tag
Method: (§3) 96-well maxisorp (Nunc) immunosorp plates were coated with 2 ug/ml of human PDGFRa (Sino Biological; Cat. Number; 10556-HCCH) or 2 ug/ml human EGFR/HER1/ErbB1 Protein (His Tag, Sino Biological; Cat. Number; 10001-H08H) in PBS, 100 ul per well, at 4C overnight. Wells were washed thrice in PBS. Unspecific binding sites were blocked in 4% BSA/PBS for 1 h at RT, followed by washing thrice in PBS. VHH-biotin conjugates, diluted at 0.01-100 nM in 1% BSA/PBS, were incubated for 1 h at RT, followed by washing thrice in PBS. Streptavidin-horseradish peroxidase (HRP; GeneTex) was diluted 1:40,000 in 1% BSA/PBS and was incubated for 1 h at RT. PDGFRa or EGFR was detected with positive control antibodies rabbit anti-human PDGFRa/CD140a Antibody, (Cat no: 10556-R065) or rabbit anti-human EGFR/HER1/ErbB1 (Catalog no: 10001-R021, both from Sino Biological) diluted in 1% BSA/PBS at 1:5000 and were incubated for 1 h at RT, shaking. Secondary HRP-conjugated anti-rabbit-antibody was diluted at 1:5000 in 1% BSA/PBS and was incubated for 1 h at RT, shaking. Wells were washed 6 times in PBS. o-Phenylenediamine dihydrochloride (OPD; Sigma-Aldrich) was used as HRP substrate at 0.4 mg/ml in 0.05 M phosphate-citrate buffer pH 5.0 with 0.03% sodium perborate (Sigma-Aldrich), prepared according to the manufacturer's recommendations, and was used in volume of 100 ul per well. Reaction was allowed to proceed for 30 min at RT in dark, and was stopped by adding 50 ul of 1.5 M HCl. Optical density was measured at 492 nm on a Synergy H1 microplate reader (BioTek).

[3] = target: T3, human PDGFRa (Sino Biological; Cat. Number 10556-HCCH) (human, UniProt P16234 24-524, limits assumed); experiment: direct ELISA, PDGFRa coated, streptavidin-HRP detection
T3 construct: Bought; construct not described; also called PDGFRα
Method: as §3
VHH-biotin binding to human PDGFRa was assessed using an ELISA, where wells were coated with PDGFRa, and VHH-biotin binding was detected using streptavidin-HRP with OPD as a substrate.

[4] = target: T4, human PDGFR β extra-cellular domain (ECD), Fc- and His-tagged (Sino Biological) (human, UniProt P09619 33-532); experiment: SPR (Biacore 3000), Fc/His PDGFR β ECD captured on protein A; only 1E12-Flag-His was run in SPR
T4 construct: extracellular domain; Bought; also called hECD; Fc/His-tagged PDGFR β ECD; not shown: Fc tag and His tag
Method: (§4) FIG. 11: VHH (flag-his-tagged, or conjugated with HL488, NOTA or 800 CW) binding to human extracellular domain (ECD) of PDGFR β assessed with surface plasmon resonance (SPR). Fc/His-tagged PDGFR β ECD was bound to protein A chemically conjugated to CM4 sensor chip. Binding of VHHs was tested at 0.39-50 nM. Shown are representative SPR Biacore traces of tagged or conjugated 1B5 VHH (panels A); tagged or conjugated 1D4 VHH (panels B); tagged or conjugated 1H4 VHH (panels C) or tagged VHH 1E12 (panel D).
(§5) SPR analysis was performed using the Biacore 3000 instrument (GE Healthcare). Protein A was chemically bound to a CM4 sensor chip (GE Healthcare) according to the primary amine procedure to approximately 2100 response units (RU). Fc/His-tagged PDGFR β ECD at 0.4-2.07 ng/ul was bound to protein A at flow rate of 35 ul/min. Run buffer HBS-EP (GE Healthcare; 0.01 M HEPES pH 7.4, 0.15 M NaCl, 3 mM EDTA, 0.005% v/v Surfactant P20) was used for VHHs 1D4, 1H4 and 1E12 conjugates at 50, 25, 12.5, 6.25, 3.13, 1.56, 0.78 and 0.39 nM. For 1B5 conjugates, HBS-EP+0.5 M NaSCN was as run buffer to reduce non-specific binding to a control path without PDGFR β ECD. A flow rate 70 ul/min was used for VHH injections in volumes of 150 ul. Regeneration of the sensor CM4 chip was performed by three successive injections of c. 30 s 10 mM glycine-HCl pH 2, 10 mM glycine-HCl pH 1.5, and 0.5 M NaSCN/10 mM NaOH.

[5] = target: T4, human PDGFR β extra-cellular domain …; experiment: biotin-streptavidin ELISA, human PDGFR β ECD coated at 1 ug/ml
Method: as §1
as §2, with “(BioTek). […]” for “(BioTek).”

[6] = target: T4, human PDGFR β extra-cellular domain …; experiment: SPR (Biacore 3000), Fc/His PDGFR β ECD captured on protein A; 1D4 construct not stated
Method: as §4, §5

[7] = target: human PDGFR β ECD (U-protein Express, Utrecht) (human) (UniProt P09619); experiment: dose response ELISA, PDGFR β ECD coated at 2 µg/ml, rabbit anti-VHH detection
[8] = target: human PDGFR β ECD (U-protein Express, Utrecht) (human) (UniProt P09619); experiment: dose response ELISA on immobilized PDGFR β

B1: 1E12-biotin (VHH)
VHH: EVQLVESGGGLVQAGGSLRLSCAPSERSFSAYLMGWFRQAQGKEREFVAAWRWPTSTTYYSDSGKGRFTITGDNAKNTVELEMNSLKPEDTAVYYCAARRGILYGPATSPTAYDFWGQGTQVTVSS
modifications: Biotin-maleimide on the C-terminal cysteine of the C-Direct tag
notes: ID NO: 31 or 32; also called VHH 1E12-biotin; biotin-conjugated 1E12; not shown: C-terminal C-Direct tag with a free cysteine and an EPEA purification tag (vector pYQVQ11)
EC50 [1]: 1.1 nM
binding result [2]: no binding (tested: 0.01-100 nM)
binding result [3]: no binding (tested: 0.01-100 nM)

B2: 1E12-Flag-His (VHH)
VHH: EVQLVESGGGLVQAGGSLRLSCAPSERSFSAYLMGWFRQAQGKEREFVAAWRWPTSTTYYSDSGKGRFTITGDNAKNTVELEMNSLKPEDTAVYYCAARRGILYGPATSPTAYDFWGQGTQVTVSS
notes: Made in E. coli; ID NO: 31 or 32 (N-terminal residue differs); also called VHH 1E12 (flag-his-tagged); tagged VHH 1E12; not shown: C-terminal FLAG-His tag from vector pMEK222
Kd [4]: ~100 nM

Second part, the binder after the results:

binding result [2]: no binding (tested: 0.01-100 nM)
binding result [3]: no binding (tested: 0.01-100 nM)
EC50 [5]: 0.117 nM
B3: 1B5-biotin (VHH)
VHH: EVQLVESGGGLVQPGGSLRLSCVASGFSFSESAMSWVRQAPGKGLEWLSGISSGGGRSTTYAESVEGRFTISRDDAKNTLMLQMNSLKSEDTAVYYCAKTGYCSGYNCNFAPRGQGTQVTVSS
modifications: Biotin-maleimide on the C-terminal cysteine of the C-Direct tag
notes: ID NO: 25 or 26; also called VHH 1B5-biotin; biotin-conjugated 1B5; not shown: C-terminal C-Direct tag with a free cysteine and an EPEA purification tag (vector pYQVQ11)

Kd [6]: ~0.02 nM
apparent affinity [7]: < 1 nM
apparent binding affinity [8]: 0.5 nM
B4: QPD-1D4 (VHH)
VHH: EVQLVESGGGLVQAGDSLRLSCAVSGRAQSRDVVGWFRQAPGKEREFLALVTRSYSTYYGASVKGRFTISRDNAKNTVHLEMNSLKPEDTGVYYCAADQGFCSGSGCYDWRTFHVWGQGTQVTVSS
notes: Purified, unconjugated VHH; also called VHH 1D4
